The assay addresses MBP-RumTrunkD9NTag. Nature of the assay: isopeptide coupling to RumTrunkD9NTag-MBP, 5 uM each, 37 C, SDS gel (time given as 50 minutes and as 3 h).

SpyCatcher-VLP showed a Percentage reconstitution of 11.9%.

The record behind these values is US20230321260A1.
